Numbering of substitutions follows the chain as printed.
B1: Founder P6.2 (low affinity anti-human IgE founder mouse mAb) (antibody, V domains shown)
VH: QVQLQQSGAELVRPGTSVKVSCKASGYAFTNYLIEWVKQRPGQGLEWIGVINPGSGFTKYNEKFKGKATLTADKSSSTAYMHLSSLTSDDSAVYFCAREDVYSWFAYWGQGTLVTVSA
VL: DIVLTQSPASLAVSLGQRATISCRASESVDSYGNSFMHWYQQKPGQPPKLLIYRTSNLESGIPARFSGSGSRTDFTLTINPVEADDVATYFCQQSYEDPFTFGSGTKLEIK
notes: Mouse hybridoma mAb
B2: hLAAIGE E14 (antibody, human IgG1, kappa, V domains shown)
VH: QVQLVQSGSELKKPGASVKVSCKASGYTFTNYGMNWVRQAPGQGLEWMGWINTYTGEPTYADDFKGRFVFSLDTSVSTAYLQISSLKAEDTAVYYCARGAASHTMDYWGQGTTVTVSS
VL: DIVMTQSPDSLAVSLGERATINCRASQSVSTSAHSYMHWYQQKPGQPPKLLIYYASNLESGVPDRFSGSGSGTDFTLTISSLQAEDVAVYYCQHSWEIPWTFGQGTKLEIKR
notes: The entries are labelled 'VH' and 'VL' but are full heavy (human IgG1) and kappa light chains; Humanized, derived from Founder E17
B3: hLAAIGE E17 (antibody, human IgG1, kappa, V domains shown)
VH: B2 VH
VL: B2 VL with A33S, S35A
notes: Humanized clone E17, a different molecule from the mouse Founder E17; The entries are labelled 'VH' and 'VL' but are full heavy (human IgG1) and kappa light chains
B4: hLAAIGE E23 (antibody, human IgG1, kappa, V domains shown)
VH: B2 VH
VL: B2 VL with A33S, H34Y, E59K, S60A
notes: as for B2
B5: hLAAIGE E59 (antibody, human IgG1, kappa, V domains shown)
VH: B2 VH
VL: B2 VL with A33S
notes: Humanized, derived from Founder E17; Expressed in 293 cells
B6: hLAAIGE H6.2 (antibody, human IgG1, lambda, V domains shown)
VH: QVQLGQSGGGVVQPGRSLRLSCAASGFTFSNYLIEWVRQAPGKGLEWVAVINPGSGFTKYNEKFKQRFTISRDNSKNTLYLQMNSLRAEDTAVYYCAREDVYSWFAYWGQGTLVTVSA
VL: QSALTQPASVSGSPGQSITISCTRASESVDSYGNSFMHQHHPGKAPKLMIYEVRTSNLESSNRFSGSKSGNTASLTISGLQAEDEADYYCSSQQSYEDPFTFGSGTKLGQPK
notes: The entries are labelled 'VH' and 'VL' but are full heavy (human IgG1) and lambda light chains; Humanized, derived from Founder P6.2
B7: hLAAIGE S91 (antibody, human IgG1, lambda, V domains shown)
VH: QVQLVQSGAEVKKPGASVKVSCKASGYTFTSYGISWVRQAPGQGLEWMGWISAYNGNTNYAQKLQGRVTMTTDTSTSTAYMELRSLRSDDTAVYYCARVSSWPYWYFDLWGRGTLVTVSS
VL: QSAVTQPPSASGSPGQSVTISCTGTSSDVGAYDYVSWYQQHPGKAPKLMIYEVSKRPSGVPDRFSGSKSGNTASLTVSGLQAEDEADYYCSSYAGRVDVFGGGTKLTVLG
notes: The entries are labelled 'VH' and 'VL' but are full heavy (human IgG1) and lambda light chains; Humanized, derived from Founder F11

How the values were obtained:
human IgE (myeloma IgE) [1] = biological target: T1, human IgE (myeloma IgE) (human, UniProt P01854-1 1-428); assay: binding affinity for human IgE; method not stated for the founders
T1 construct: Myeloma IgE coupled by amine coupling to a CM5 chip for Biacore; Also used to sensitize human FcεRIα-expressing 3D10 cells; also called PS IgE

human IgE (myeloma IgE) [2] = biological target: T1, human IgE (myeloma IgE); assay: SPR, Biacore T2000, myeloma IgE amine-coupled to CM5 chip, antibody in solution
Method: (§1) The complementary determining region (CDR) sequences and the specificity-determining residues (SDR) of each heavy chain variable (VH) and light chain variable (VL) regions were engrafted into the framework (FR) regions of the most homologous human germline sequences. All the recombinant mAbs were transiently expressed in 293 cells in small scale (50 ml transfection volume) and purified by protein A affinity column for downstream application. The humanized mAbs not expressing or expressing <1 μg/ml recombinant antibody were eliminated. The affinity of humanized LAAIGE (hLAAIGE) to […] was determined by the surface plasmon resonance using Biacore T2000 instrument (Biacore AB, Uppsala, Sweden) with a CM5 sensor chip coupled with myeloma IgE by amine coupling. The purified hLAAIGEs were dissolved in HBS-EP assay buffer containing 0.15 M NaCl, 10 mM HEPES, pH 7.4, 3 mM EDTA, and 0.005% polysorbate 20. The solutions traversed the sensors at a flow rate of 50 μl/minute for binding analysis. Binding results were expressed in resonance units. Kinetic studies were analyzed with BIAevaluation Software Version 4.1. […] The binding of the selected hLAAIGE to the cell surface-bound IgE was confirmed using the human FcεRIα expressing 3D10 cells sensitized with myeloma IgE.

human IgE (myeloma IgE) [3] = biological target: T1, human IgE (myeloma IgE); assay: SPR (Biacore method); range told of the group, this end tied to E14 by paragraph 147
Method: as §1

human IgE (myeloma IgE) [4] = biological target: T1, human IgE (myeloma IgE); assay: SPR (Biacore method); range told of the group, this end tied to H6.2 by paragraph 147
Method: as §1

human IgE (myeloma IgE) [5] = biological target: T1, human IgE (myeloma IgE); assay: SPR, Biacore T2000; range told of the chosen antibodies, this end tied to S91 by paragraph 147
Method: as §1

T1 sequence (P01854 other isoform, or with tags, fused parts or gaps): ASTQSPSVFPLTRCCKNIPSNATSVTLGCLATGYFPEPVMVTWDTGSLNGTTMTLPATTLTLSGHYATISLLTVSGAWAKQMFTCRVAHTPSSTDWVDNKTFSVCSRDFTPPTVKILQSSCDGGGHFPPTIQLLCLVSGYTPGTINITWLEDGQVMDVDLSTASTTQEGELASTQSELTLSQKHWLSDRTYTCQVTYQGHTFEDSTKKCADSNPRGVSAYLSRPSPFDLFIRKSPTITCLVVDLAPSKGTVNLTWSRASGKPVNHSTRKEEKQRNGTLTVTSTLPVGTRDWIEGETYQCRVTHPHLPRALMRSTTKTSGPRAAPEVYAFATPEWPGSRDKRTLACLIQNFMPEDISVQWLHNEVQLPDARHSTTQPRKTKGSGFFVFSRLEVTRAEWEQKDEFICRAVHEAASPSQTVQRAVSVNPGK

| Binder | Kd (human IgE (myeloma IgE) [2]) [nM] | other results |
| --- | --- | --- |
| B1 |  | Kd (human IgE (myeloma IgE) [1]): ~2540 nM |
| B2 | 67.2 | Kd (human IgE (myeloma IgE) [3]): 70 nM |
| B3 | 140 |  |
| B4 | 109 |  |
| B5 | 164 |  |
| B6 | ~50000 | Kd (human IgE (myeloma IgE) [4]): 50000 nM |
| B7 | 7410 | Kd (human IgE (myeloma IgE) [5]): 7000 nM |
